Test results reported in article PMC10397247.

Experiments:
Assay in all cases: two-hybrid library CCNG1;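 note: natural log of median RNA to DNA barcode read ratio; higher means stronger binding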
4H1985-bH = target: T1, 4H1985-bH
T1 chain: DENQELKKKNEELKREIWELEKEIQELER

4H3129-bH = target: T2, 4H3129-bH
T2 chain: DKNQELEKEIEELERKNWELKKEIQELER

4H3162-bH = target: T3, 4H3162-bH
T3 chain: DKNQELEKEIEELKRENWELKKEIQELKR

4H3172-bH = target: T4, 4H3172-bH
T4 chain: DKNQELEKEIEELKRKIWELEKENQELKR

4H3175-bH = target: T5, 4H3175-bH
T5 chain: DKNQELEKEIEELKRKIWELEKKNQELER

4H3277-bH = target: T6, 4H3277-bH
T6 chain: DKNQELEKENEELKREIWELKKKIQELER

4H3298-bH = target: T7, 4H3298-bH
T7 chain: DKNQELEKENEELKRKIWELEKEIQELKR

4H3414-bH = target: T8, 4H3414-bH
T8 chain: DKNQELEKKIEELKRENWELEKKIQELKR

4H3462-bH = target: T9, 4H3462-bH
T9 chain: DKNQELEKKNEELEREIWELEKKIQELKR

4H3497-bH = target: T10, 4H3497-bH
T10 chain: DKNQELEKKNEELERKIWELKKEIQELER

4H3613-bH = target: T11, 4H3613-bH
T11 chain: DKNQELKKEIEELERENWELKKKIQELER

4H3628-bH = target: T12, 4H3628-bH
T12 chain: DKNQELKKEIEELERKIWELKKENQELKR

4H3631-bH = target: T13, 4H3631-bH
T13 chain: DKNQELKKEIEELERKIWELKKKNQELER

4H3638-bH = target: T14, 4H3638-bH
T14 chain: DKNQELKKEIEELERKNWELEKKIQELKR

4H3817-bH = target: T15, 4H3817-bH
T15 chain: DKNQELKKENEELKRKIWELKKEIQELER

4H3858-bH = target: T16, 4H3858-bH
T16 chain: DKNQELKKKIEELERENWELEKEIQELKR

4H3926-bH = target: T17, 4H3926-bH
T17 chain: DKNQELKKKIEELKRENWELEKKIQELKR

4H3974-bH = target: T18, 4H3974-bH
T18 chain: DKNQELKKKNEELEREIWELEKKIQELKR

4H570-bH = target: T19, 4H570-bH
T19 chain: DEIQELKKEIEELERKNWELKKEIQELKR

4H584-bH = target: T20, 4H584-bH
T20 chain: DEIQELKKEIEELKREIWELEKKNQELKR

4H591-bH = target: T21, 4H591-bH
T21 chain: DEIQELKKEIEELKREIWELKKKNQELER

4H619-bH = target: T22, 4H619-bH
T22 chain: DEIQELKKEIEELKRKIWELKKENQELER

4H626-bH = target: T23, 4H626-bH
T23 chain: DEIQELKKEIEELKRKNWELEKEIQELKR

4H72-bH = target: T24, 4H72-bH
T24 chain: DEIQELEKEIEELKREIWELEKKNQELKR

4H850-bH = target: T25, 4H850-bH
T25 chain: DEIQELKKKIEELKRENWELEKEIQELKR

4H906-bH = target: T26, 4H906-bH
T26 chain: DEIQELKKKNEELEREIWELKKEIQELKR

O15-bA = target: T27, O15-bA
T27 chain: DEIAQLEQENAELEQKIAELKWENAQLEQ

O16-bA = target: T28, O16-bA
T28 chain: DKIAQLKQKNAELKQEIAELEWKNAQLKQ

O2-bA = target: T29, O2-bA
T29 chain: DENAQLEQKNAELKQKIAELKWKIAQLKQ

O3-bA = target: T30, O3-bA
T30 chain: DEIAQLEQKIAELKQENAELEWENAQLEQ

O4-bA = target: T31, O4-bA
T31 chain: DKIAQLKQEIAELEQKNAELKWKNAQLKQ

O5-bA = target: T32, O5-bA
T32 chain: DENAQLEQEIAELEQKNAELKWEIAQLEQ

O6-bA = target: T33, O6-bA
T33 chain: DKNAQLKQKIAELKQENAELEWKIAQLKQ

O7-bA = target: T34, O7-bA
T34 chain: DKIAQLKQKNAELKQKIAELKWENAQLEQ

O8-bA = target: T35, O8-bA
T35 chain: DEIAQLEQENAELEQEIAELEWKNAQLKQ

O9-bA = target: T36, O9-bA
T36 chain: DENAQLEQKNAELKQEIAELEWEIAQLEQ

4H607-bH = target: T37, 4H607-bH
T37 chain: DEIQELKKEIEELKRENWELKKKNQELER

4H2702-bA = target: T38, 4H2702-bA
T38 chain: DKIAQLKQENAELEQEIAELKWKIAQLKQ

4H3010-bA = target: T39, 4H3010-bA
T39 chain: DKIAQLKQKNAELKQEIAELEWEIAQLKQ

4H3112-bA = target: T40, 4H3112-bA
T40 chain: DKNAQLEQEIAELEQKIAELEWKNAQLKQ

4H3427-bA = target: T41, 4H3427-bA
T41 chain: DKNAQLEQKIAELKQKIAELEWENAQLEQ

4H346-bA = target: T42, 4H346-bA
T42 chain: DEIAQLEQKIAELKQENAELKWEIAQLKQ

4H3926-bA = target: T43, 4H3926-bA
T43 chain: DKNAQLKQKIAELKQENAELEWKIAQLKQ

4H4073-bA = target: T44, 4H4073-bA
T44 chain: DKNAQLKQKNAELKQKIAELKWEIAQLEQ

4H457-bA = target: T45, 4H457-bA
T45 chain: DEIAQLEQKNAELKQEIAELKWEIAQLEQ

4H575-bA = target: T46, 4H575-bA
T46 chain: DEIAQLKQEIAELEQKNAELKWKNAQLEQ

4H683-bA = target: T47, 4H683-bA
T47 chain: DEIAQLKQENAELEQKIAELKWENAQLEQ

4H754-bA = target: T48, 4H754-bA
T48 chain: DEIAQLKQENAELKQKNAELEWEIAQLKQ

4H780-bA = target: T49, 4H780-bA
T49 chain: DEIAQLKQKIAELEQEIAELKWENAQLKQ

4H797-bA = target: T50, 4H797-bA
T50 chain: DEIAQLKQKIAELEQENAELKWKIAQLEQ

4H855-bA = target: T51, 4H855-bA
T51 chain: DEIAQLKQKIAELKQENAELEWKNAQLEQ

4H918-bA = target: T52, 4H918-bA
T52 chain: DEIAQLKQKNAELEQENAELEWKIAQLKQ

4H953-bA = target: T53, 4H953-bA
T53 chain: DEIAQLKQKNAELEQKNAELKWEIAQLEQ

4H968-bA = target: T54, 4H968-bA
T54 chain: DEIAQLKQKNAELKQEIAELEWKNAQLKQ

O2 = target: T55, O2
T55 chain: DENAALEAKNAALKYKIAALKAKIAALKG

O3 = target: T56, O3
T56 chain: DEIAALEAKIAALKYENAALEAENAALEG

O4 = target: T57, O4
T57 chain: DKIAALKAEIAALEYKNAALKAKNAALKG

O5 = target: T58, O5
T58 chain: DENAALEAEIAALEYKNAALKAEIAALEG

O6 = target: T59, O6
T59 chain: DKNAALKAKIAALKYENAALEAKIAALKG

O7 = target: T60, O7
T60 chain: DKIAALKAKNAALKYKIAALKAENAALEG

O8 = target: T61, O8
T61 chain: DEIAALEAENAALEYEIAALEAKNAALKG

O9 = target: T62, O9
T62 chain: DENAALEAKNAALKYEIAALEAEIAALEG

B1: 4H1985-bH (peptide)
chain: DENQELKKKNEELKREIWELEKEIQELER
4H1985-bH
  interaction score: -2.13
4H3129-bH
  interaction score: -0.549
4H3162-bH
  interaction score: -1.36
4H3172-bH
  interaction score: -1.84
4H3175-bH
  interaction score: -0.853
4H3277-bH
  interaction score: -0.449
4H3298-bH
  interaction score: -0.821
4H3414-bH
  interaction score: -0.255
4H3462-bH
  interaction score: -0.482
4H3497-bH
  interaction score: -0.884
4H3613-bH
  interaction score: -1.08
4H3628-bH
  interaction score: -0.631
4H3631-bH
  interaction score: 0.015
4H3638-bH
  interaction score: -0.17
4H3817-bH
  interaction score: -0.0213
4H3858-bH
  interaction score: -1.02
4H3926-bH
  interaction score: -0.572
4H3974-bH
  interaction score: 0.0704
4H570-bH
  interaction score: -0.979
4H584-bH
  interaction score: -1.1
4H591-bH
  interaction score: -1.01
4H619-bH
  interaction score: -1.32
4H626-bH
  interaction score: -2.1
4H72-bH
  interaction score: -0.781
4H850-bH
  interaction score: -0.707
4H906-bH
  interaction score: -0.874

B2: O15-bA (peptide)
chain: DEIAQLEQENAELEQKIAELKWENAQLEQ
O15-bA
  interaction score: -1.57
O16-bA
  interaction score: 2.52
O2-bA
  interaction score: -0.458
O3-bA
  interaction score: -1.21
O4-bA
  interaction score: -0.5
O5-bA
  interaction score: -0.66
O6-bA
  interaction score: -0.551
O7-bA
  interaction score: 1.63
O8-bA
  interaction score: -0.714
O9-bA
  interaction score: -0.0414

B3: 4H3162-bH (peptide)
chain: DKNQELEKEIEELKRENWELKKEIQELKR
4H3162-bH
  interaction score: 0.549
4H3175-bH
  interaction score: -1.88
4H3277-bH
  interaction score: -0.247
4H3298-bH
  interaction score: -0.633
4H3462-bH
  interaction score: -0.66
4H3497-bH
  interaction score: -0.619
4H3613-bH
  interaction score: 0.334
4H3628-bH
  interaction score: -1.68
4H3926-bH
  interaction score: 1.52
4H591-bH
  interaction score: -0.636
4H607-bH
  interaction score: -2.63
4H626-bH
  interaction score: -1.98
4H906-bH
  interaction score: -0.0502

B4: 4H2702-bA (peptide)
chain: DKIAQLKQENAELEQEIAELKWKIAQLKQ
4H2702-bA
  interaction score: 1.87
4H3010-bA
  interaction score: 2.07
4H3112-bA
  interaction score: 0.438
4H3427-bA
  interaction score: 0.956
4H346-bA
  interaction score: 0.224
4H3926-bA
  interaction score: 1.22
4H4073-bA
  interaction score: 2.39
4H457-bA
  interaction score: 1.03
4H575-bA
  interaction score: -1.27
4H683-bA
  interaction score: -1.86
4H754-bA
  interaction score: -1.37
4H780-bA
  interaction score: -1.04
4H797-bA
  interaction score: -1.02
4H855-bA
  interaction score: -1.38
4H918-bA
  interaction score: -0.134
4H953-bA
  interaction score: 1.82
4H968-bA
  interaction score: 2.68
O15-bA
  interaction score: 0.113
O4-bA
  interaction score: -0.822

B5: O14-bA (peptide)
chain: DENAQLEQEIAELEQENAELEWKIAQLKQ
O15-bA
  interaction score: -0.126
O16-bA
  interaction score: 2.36
O2-bA
  interaction score: 0.492
O3-bA
  interaction score: -0.879
O4-bA
  interaction score: -0.146
O5-bA
  interaction score: 1.69
O6-bA
  interaction score: 2.5
O7-bA
  interaction score: 2.14
O8-bA
  interaction score: -0.111
O9-bA
  interaction score: -0.575

B6: O2 (peptide)
chain: DENAALEAKNAALKYKIAALKAKIAALKG
O2
  interaction score: -2.16
O3
  interaction score: -1.84
O4
  interaction score: -1.83
O5
  interaction score: -1.97
O6
  interaction score: -2.66
O7
  interaction score: -2.4
O8
  interaction score: -0.949
O9
  interaction score: 0.313

B7: O13-bA (peptide)
chain: DKNAQLKQKIAELKQKNAELKWEIAQLEQ
O15-bA
  interaction score: 0.435
O16-bA
  interaction score: -1.53
O2-bA
  interaction score: -1.17
O3-bA
  interaction score: -1.05
O4-bA
  interaction score: -1.31
O5-bA
  interaction score: 0.182
O6-bA
  interaction score: 1.39
O7-bA
  interaction score: -1.07
O8-bA
  interaction score: 0.83
O9-bA
  interaction score: -0.882
